Measured values from the Human Domainome abundance scans (Beltran et al. 2025).
± gives the uncertainty stated by the source.

B1: COUP transcription factor 1, residues 83 to 159; numbered along this chain, P10589 (parent)
chain: HIECVVCGDKSSGKHYGQFTCEGCKSFFKRSVRRNLTYTCRANRNCPIDQHHRNQCQYCRLKKCLKVGMRREAVQRG

Variants of: B1
Experiment: abundance fitness (aPCA) (normalised: wild type 0, dead -1); higher = more abundant; growth selection in yeast, the domain comes from the species named
Settings: Homo sapiens

| Variant | abundance fitness |
| --- | --- |
| R53W | -0.288 ± 0.11 |
| R53T | 0.017 ± 0.066 |
| R53V | -0.069 ± 0.06 |
| R53L | -0.081 ± 0.065 |
| R53K | -0.218 ± 0.14 |
| R53P | 0.111 ± 0.088 |
| R53S | -0.178 ± 0.076 |
| R53M | -0.099 ± 0.11 |
| R53A | 0.022 ± 0.059 |
| R53Y | 0.224 ± 0.23 |
| R53I | -0.169 ± 0.17 |
| R53E | 0.018 ± 0.07 |
| R53N | -0.044 ± 0.16 |
| R53D | 0.055 ± 0.093 |
| R53F | -0.495 ± 0.28 |
| R53H | -0.231 ± 0.17 |
| R53C | -0.001 ± 0.11 |
| I48L | -0.147 ± 0.046 |
| I48A | -0.366 ± 0.071 |
| I48W | -0.283 ± 0.063 |
| I48K | -0.661 ± 0.14 |
| I48T | -0.094 ± 0.056 |
| I48C | -0.25 ± 0.071 |
| I48F | -0.11 ± 0.087 |

| Variant | abundance fitness |
| --- | --- |
| I48D | -0.302 ± 0.11 |
| I48N | -0.151 ± 0.088 |
| I48G | -0.466 ± 0.071 |
| I48R | -0.461 ± 0.065 |
| I48E | -0.23 ± 0.092 |
| I48P | -0.788 ± 0.13 |
| I48Y | -0.518 ± 0.12 |
| I48H | -0.93 ± 0.22 |
| I48S | -0.286 ± 0.052 |
| I48M | -0.13 ± 0.063 |
| I48Q | -0.125 ± 0.065 |
| Q57N | 0.163 ± 0.12 |
| Q57M | -0.121 ± 0.15 |
| Q57K | -0.341 ± 0.11 |
| Q57W | 0.156 ± 0.068 |
| Q57L | -0.221 ± 0.083 |
| Q57R | -0.231 ± 0.052 |
| Q57F | -0.036 ± 0.11 |
| Q57E | 0.183 ± 0.06 |
| Q57G | 0.07 ± 0.047 |
| Q57V | -0.567 ± 0.084 |
| Q57C | -0.093 ± 0.14 |
| Q57P | -0.042 ± 0.083 |
| Q57Y | 0.296 ± 0.21 |

| Variant | abundance fitness |
| --- | --- |
| Q57D | 0.046 ± 0.095 |
| Q57A | -0.035 ± 0.058 |
| Q57S | -0.059 ± 0.06 |
| Q57H | 0.054 ± 0.12 |
| Q57T | -0.088 ± 0.1 |
| C56P | -1 ± 0.27 |
| C56E | -0.87 ± 0.15 |
| C56F | -0.506 ± 0.17 |
| C56N | -0.373 ± 0.21 |
| C56D | -0.815 ± 0.28 |
| C56Q | -0.82 ± 0.28 |
| C56G | -0.786 ± 0.08 |
| C56S | -0.723 ± 0.15 |
| C56R | -0.886 ± 0.091 |
| C56K | -0.926 ± 0.29 |
| C56H | -0.6 ± 0.2 |
| C56T | -1.13 ± 0.31 |
| C56A | -0.552 ± 0.098 |
| C56Y | -0.612 ± 0.35 |
| C56I | -0.627 ± 0.19 |
| C56M | -0.636 ± 0.17 |
| C56V | -0.758 ± 0.093 |
| H51D | -0.022 ± 0.065 |
| H51I | -0.244 ± 0.13 |

| Variant | abundance fitness |
| --- | --- |
| H51P | -0.138 ± 0.077 |
| H51C | -0.118 ± 0.064 |
| H51Q | 0.081 ± 0.066 |
| H51K | 0.059 ± 0.064 |
| H51R | -0.16 ± 0.039 |
| H51N | 0.102 ± 0.13 |
| H51E | -0.041 ± 0.051 |
| H51T | -0.091 ± 0.063 |
| H51G | 0.034 ± 0.031 |
| H51A | 0.039 ± 0.044 |
| H51L | 0.059 ± 0.044 |
| H51Y | -0.09 ± 0.096 |
| H51V | -0.051 ± 0.041 |
| H51W | 0.012 ± 0.048 |
| H51M | 0.025 ± 0.066 |
| K63S | -0.464 ± 0.059 |
| K63E | -0.161 ± 0.044 |
| K63Y | -0.277 ± 0.097 |
| K63I | -0.402 ± 0.1 |
| K63D | -0.874 ± 0.14 |
| K63A | -0.254 ± 0.045 |
| K63Q | -0.139 ± 0.047 |
| K63R | -0.094 ± 0.036 |
| K63C | -0.17 ± 0.063 |

| Variant | abundance fitness |
| --- | --- |
| K63T | -0.356 ± 0.057 |
| K63L | -0.337 ± 0.049 |
| K63G | -0.526 ± 0.05 |
| K63N | -0.626 ± 0.14 |
| K63F | -0.372 ± 0.12 |
| K63H | -0.114 ± 0.085 |
| K63P | -0.647 ± 0.095 |
| K63M | -0.048 ± 0.047 |
| K63W | -0.391 ± 0.053 |
| K63V | -0.249 ± 0.045 |
| K62D | 0.053 ± 0.064 |
| K62I | 0.189 ± 0.068 |
| K62Y | -0.512 ± 0.16 |
| K62V | 0.086 ± 0.037 |
| K62S | 0.011 ± 0.041 |
| K62C | -0.257 ± 0.089 |
| K62P | -0.573 ± 0.11 |
| K62H | -0.198 ± 0.083 |
| K62R | -0.073 ± 0.033 |
| K62N | 0.146 ± 0.063 |
| K62G | -0.143 ± 0.035 |
| K62L | -0.015 ± 0.038 |
| K62M | -0.003 ± 0.049 |
| K62W | -0.162 ± 0.049 |

| Variant | abundance fitness |
| --- | --- |
| K62A | 0.044 ± 0.036 |
| K62Q | -0.001 ± 0.061 |
| Q55H | 0.017 ± 0.052 |
| Q55K | -0.021 ± 0.073 |
| Q55L | -0.059 ± 0.045 |
| Q55T | -0.101 ± 0.051 |
| Q55Y | -0.039 ± 0.062 |
| Q55P | -0.109 ± 0.058 |
| Q55C | 0.008 ± 0.056 |
| Q55E | 0.19 ± 0.053 |
| Q55N | -0.083 ± 0.075 |
| Q55V | -0.003 ± 0.04 |
| Q55I | 0.006 ± 0.06 |
| Q55W | 0.095 ± 0.051 |
| Q55R | -0.074 ± 0.039 |
| Q55D | 0.123 ± 0.051 |
| Q55M | -0.126 ± 0.072 |
| Q55G | -0.017 ± 0.037 |
| Q55F | 0.069 ± 0.063 |
| Q55A | -0.02 ± 0.042 |
| H52R | -0.154 ± 0.042 |
| H52K | -0.035 ± 0.055 |
| H52W | -0.263 ± 0.075 |
| H52F | -0.068 ± 0.062 |

| Variant | abundance fitness |
| --- | --- |
| H52P | 0.09 ± 0.043 |
| H52V | 0.023 ± 0.042 |
| H52Q | 0.095 ± 0.047 |
| H52G | 0.035 ± 0.043 |
| H52A | 0.041 ± 0.041 |
| H52C | -0.092 ± 0.061 |
| H52I | 0.07 ± 0.047 |
| H52E | 0.08 ± 0.051 |
| H52N | -0.1 ± 0.055 |
| H52Y | -0.225 ± 0.067 |
| H52D | -0.092 ± 0.053 |
| H52S | -0.102 ± 0.043 |
| H52M | -0.019 ± 0.052 |
| N45Q | 0.13 ± 0.075 |
| N45Y | -0.595 ± 0.42 |
| N45P | 0.015 ± 0.16 |
| N45L | -0.322 ± 0.14 |
| N45S | 0.061 ± 0.08 |
| N45M | -0.245 ± 0.38 |
| N45W | -0.049 ± 0.096 |
| N45K | -0.265 ± 0.2 |
| N45V | -0.058 ± 0.057 |
| N45R | 0.067 ± 0.05 |
